T1: APBA2_1, Q99767
T1 sequence (Q99767 563-664, limits assumed, looked up): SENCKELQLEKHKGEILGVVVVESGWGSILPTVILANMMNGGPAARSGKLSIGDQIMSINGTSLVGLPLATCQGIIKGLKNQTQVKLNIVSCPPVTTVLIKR

T2: APBA3_1, O96018
T2 sequence (O96018 389-490, limits assumed, looked up): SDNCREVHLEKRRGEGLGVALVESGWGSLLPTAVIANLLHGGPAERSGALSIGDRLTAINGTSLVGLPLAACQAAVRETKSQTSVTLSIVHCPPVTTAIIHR

T3: DFNB31_2, Q9P202
T3 sequence (Q9P202 274-371, limits assumed, looked up): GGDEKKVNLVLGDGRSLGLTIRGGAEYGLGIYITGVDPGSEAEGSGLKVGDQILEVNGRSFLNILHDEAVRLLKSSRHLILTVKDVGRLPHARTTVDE

T4: DVL3, Q92997
T4 sequence (Q92997 244-331, limits assumed, looked up): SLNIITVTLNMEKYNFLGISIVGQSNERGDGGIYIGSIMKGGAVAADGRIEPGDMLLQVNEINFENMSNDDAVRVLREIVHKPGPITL

T5: HTRA3, P83110
T5 sequence (P83110 354-453, limits assumed, looked up): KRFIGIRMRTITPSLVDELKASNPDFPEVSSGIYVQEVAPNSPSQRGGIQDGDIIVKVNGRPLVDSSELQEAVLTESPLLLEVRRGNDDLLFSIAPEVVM

T6: NHERF3_3, Q5T2W1
T6 sequence (Q5T2W1 238-333, limits assumed, looked up): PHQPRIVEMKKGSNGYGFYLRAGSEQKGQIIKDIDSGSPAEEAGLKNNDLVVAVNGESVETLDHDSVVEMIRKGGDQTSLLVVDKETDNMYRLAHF

T7: PARD3B_1, Q8TEW8
T7 sequence (Q8TEW8 196-299, limits assumed, looked up): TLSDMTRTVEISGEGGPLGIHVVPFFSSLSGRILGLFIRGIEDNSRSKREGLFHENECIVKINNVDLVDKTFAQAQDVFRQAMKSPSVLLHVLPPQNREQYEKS

T8: PDZD7_3, Q9H5P4
T8 sequence (Q9H5P4 857-944, limits assumed, looked up): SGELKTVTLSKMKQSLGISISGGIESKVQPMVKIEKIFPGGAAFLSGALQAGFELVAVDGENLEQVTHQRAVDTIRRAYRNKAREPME

T9: SIPA1L2, Q9P2F8
T9 sequence (Q9P2F8 945-1036, limits assumed, looked up): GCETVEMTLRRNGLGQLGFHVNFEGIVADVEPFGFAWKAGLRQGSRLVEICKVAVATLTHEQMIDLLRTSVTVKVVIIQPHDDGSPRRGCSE

T10: SNTA1, Q13424
T10 sequence (Q13424 82-180, limits assumed, looked up): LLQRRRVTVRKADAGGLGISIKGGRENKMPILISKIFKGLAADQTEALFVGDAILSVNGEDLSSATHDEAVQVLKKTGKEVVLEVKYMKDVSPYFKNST

T11: SNTG1, Q9NSN8
T11 sequence (Q9NSN8 52-150, limits assumed, looked up): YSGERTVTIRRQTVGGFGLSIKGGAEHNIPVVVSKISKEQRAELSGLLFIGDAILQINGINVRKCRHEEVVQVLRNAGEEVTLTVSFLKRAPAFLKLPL

T12: TJP3_3, O95049
T12 sequence (O95049 375-456, limits assumed, looked up): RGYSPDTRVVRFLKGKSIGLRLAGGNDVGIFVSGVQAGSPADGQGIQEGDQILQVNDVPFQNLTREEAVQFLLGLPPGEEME


target: T1, APBA2_1, Q99767; test: holdup assay; set-up: key: below the threshold = too weak to quantify, mostly under pKd 3.1 to 4; conditions: plain residues with an end cap or a label only (N-terminal biotin on a linker: ado-ado)

Binder | pKd
LPHGHSTTRV [NLGN4X, Q8N0W4] | below the threshold
YYKRPVQEWV [MMP24, Q9Y5R2] | below the threshold

target: T2, APBA3_1, O96018; test: holdup assay; set-up: key: below the threshold = too weak to quantify, mostly under pKd 3.1 to 4; conditions: plain residues with an end cap or a label only (N-terminal biotin on a linker: ado-ado)

Binder | pKd
LPHGHSTTRV [NLGN4X, Q8N0W4] | below the threshold
YYKRPVQEWV [MMP24, Q9Y5R2] | below the threshold

target: ARHGEF12, Q9NZN5-2; test: holdup assay; set-up: key: below the threshold = too weak to quantify, mostly under pKd 3.1 to 4; conditions: plain residues with an end cap or a label only (N-terminal biotin on a linker: ado-ado)
Sequence (Q9NZN5 other isoform, or with tags, fused parts or gaps): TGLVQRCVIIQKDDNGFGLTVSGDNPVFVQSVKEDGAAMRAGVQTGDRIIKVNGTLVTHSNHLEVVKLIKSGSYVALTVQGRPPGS

Binder | pKd
LPHGHSTTRV [NLGN4X, Q8N0W4] | 3.98
YYKRPVQEWV [MMP24, Q9Y5R2] | 3.62

target: CASK, O14936; test: holdup assay; set-up: key: below the threshold = too weak to quantify, mostly under pKd 3.1 to 4; conditions: plain residues with an end cap or a label only (N-terminal biotin on a linker: ado-ado)
Sequence (O14936 487-570): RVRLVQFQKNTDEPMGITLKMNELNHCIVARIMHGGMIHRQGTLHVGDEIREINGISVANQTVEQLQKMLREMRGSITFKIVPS

Binder | pKd
LPHGHSTTRV [NLGN4X, Q8N0W4] | below the threshold
YYKRPVQEWV [MMP24, Q9Y5R2] | below the threshold

target: T3, DFNB31_2, Q9P202; test: holdup assay; set-up: key: below the threshold = too weak to quantify, mostly under pKd 3.1 to 4; conditions: plain residues with an end cap or a label only (N-terminal biotin on a linker: ado-ado)

Binder | pKd
LPHGHSTTRV [NLGN4X, Q8N0W4] | below the threshold
YYKRPVQEWV [MMP24, Q9Y5R2] | below the threshold

target: DLG2_2, Q15700; test: holdup assay; set-up: key: below the threshold = too weak to quantify, mostly under pKd 3.1 to 4; conditions: plain residues with an end cap or a label only (N-terminal biotin on a linker: ado-ado)
Sequence (Q15700 189-283): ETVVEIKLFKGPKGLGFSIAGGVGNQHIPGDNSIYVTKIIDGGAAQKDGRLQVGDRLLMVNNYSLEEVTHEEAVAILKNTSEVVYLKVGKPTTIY

Binder | pKd
LPHGHSTTRV [NLGN4X, Q8N0W4] | 3.74
YYKRPVQEWV [MMP24, Q9Y5R2] | 3.62

target: T4, DVL3, Q92997; test: holdup assay; set-up: key: below the threshold = too weak to quantify, mostly under pKd 3.1 to 4; conditions: plain residues with an end cap or a label only (N-terminal biotin on a linker: ado-ado)

Binder | pKd
LPHGHSTTRV [NLGN4X, Q8N0W4] | below the threshold
YYKRPVQEWV [MMP24, Q9Y5R2] | 4.38

target: GORASP1, Q9BQQ3; test: holdup assay; set-up: key: below the threshold = too weak to quantify, mostly under pKd 3.1 to 4; conditions: plain residues with an end cap or a label only (N-terminal biotin on a linker: ado-ado)
Sequence (Q9BQQ3 1-208): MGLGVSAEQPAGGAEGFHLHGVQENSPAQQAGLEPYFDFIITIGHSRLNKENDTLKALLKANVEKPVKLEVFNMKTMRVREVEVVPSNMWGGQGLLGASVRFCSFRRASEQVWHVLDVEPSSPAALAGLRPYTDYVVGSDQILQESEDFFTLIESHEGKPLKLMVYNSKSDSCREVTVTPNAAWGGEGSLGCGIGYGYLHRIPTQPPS

Binder | pKd
LPHGHSTTRV [NLGN4X, Q8N0W4] | 3.76
YYKRPVQEWV [MMP24, Q9Y5R2] | 4.9

target: GRIP2_3, Q9C0E4; test: holdup assay; set-up: key: below the threshold = too weak to quantify, mostly under pKd 3.1 to 4; conditions: plain residues with an end cap or a label only (N-terminal biotin on a linker: ado-ado)
Sequence (Q9C0E4 238-339): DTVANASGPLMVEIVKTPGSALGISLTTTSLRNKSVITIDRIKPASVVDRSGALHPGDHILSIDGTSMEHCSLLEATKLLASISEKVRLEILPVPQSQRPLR

Binder | pKd
LPHGHSTTRV [NLGN4X, Q8N0W4] | below the threshold
YYKRPVQEWV [MMP24, Q9Y5R2] | 3.48

target: GRIP2_7, Q9C0E4; test: holdup assay; set-up: key: below the threshold = too weak to quantify, mostly under pKd 3.1 to 4; conditions: plain residues with an end cap or a label only (N-terminal biotin on a linker: ado-ado)
Sequence (Q9C0E4 934-1023): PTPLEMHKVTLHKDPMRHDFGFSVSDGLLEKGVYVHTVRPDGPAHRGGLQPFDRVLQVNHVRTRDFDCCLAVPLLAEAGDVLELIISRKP

Binder | pKd
LPHGHSTTRV [NLGN4X, Q8N0W4] | below the threshold
YYKRPVQEWV [MMP24, Q9Y5R2] | 4.32

target: T5, HTRA3, P83110; test: holdup assay; set-up: key: below the threshold = too weak to quantify, mostly under pKd 3.1 to 4; conditions: plain residues with an end cap or a label only (N-terminal biotin on a linker: ado-ado)

Binder | pKd
LPHGHSTTRV [NLGN4X, Q8N0W4] | below the threshold
YYKRPVQEWV [MMP24, Q9Y5R2] | 5.7

target: LIMK2, P53671; test: holdup assay; set-up: key: below the threshold = too weak to quantify, mostly under pKd 3.1 to 4; conditions: plain residues with an end cap or a label only (N-terminal biotin on a linker: ado-ado)
Sequence (P53671 143-248): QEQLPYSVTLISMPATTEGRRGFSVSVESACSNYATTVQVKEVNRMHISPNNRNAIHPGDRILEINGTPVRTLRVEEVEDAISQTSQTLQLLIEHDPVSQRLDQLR

Binder | pKd
LPHGHSTTRV [NLGN4X, Q8N0W4] | below the threshold
YYKRPVQEWV [MMP24, Q9Y5R2] | below the threshold

target: MAGI1_2, Q96QZ7; test: holdup assay; set-up: key: below the threshold = too weak to quantify, mostly under pKd 3.1 to 4; conditions: plain residues with an end cap or a label only (N-terminal biotin on a linker: ado-ado)
Sequence (Q96QZ7 456-580): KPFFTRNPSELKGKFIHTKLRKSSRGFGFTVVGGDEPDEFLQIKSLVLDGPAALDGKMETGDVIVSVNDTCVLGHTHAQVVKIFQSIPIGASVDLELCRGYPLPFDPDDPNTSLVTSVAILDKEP

Binder | pKd
LPHGHSTTRV [NLGN4X, Q8N0W4] | 4.23
YYKRPVQEWV [MMP24, Q9Y5R2] | below the threshold

target: T6, NHERF3_3, Q5T2W1; test: holdup assay; set-up: key: below the threshold = too weak to quantify, mostly under pKd 3.1 to 4; conditions: plain residues with an end cap or a label only (N-terminal biotin on a linker: ado-ado)

Binder | pKd
LPHGHSTTRV [NLGN4X, Q8N0W4] | below the threshold
YYKRPVQEWV [MMP24, Q9Y5R2] | below the threshold

target: NHERF4_2, Q86UT5; test: holdup assay; set-up: key: below the threshold = too weak to quantify, mostly under pKd 3.1 to 4; conditions: plain residues with an end cap or a label only (N-terminal biotin on a linker: ado-ado)
Sequence (Q86UT5 220-308): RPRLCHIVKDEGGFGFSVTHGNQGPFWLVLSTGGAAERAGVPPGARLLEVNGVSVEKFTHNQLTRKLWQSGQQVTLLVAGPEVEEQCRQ

Binder | pKd
LPHGHSTTRV [NLGN4X, Q8N0W4] | below the threshold
YYKRPVQEWV [MMP24, Q9Y5R2] | below the threshold

target: T7, PARD3B_1, Q8TEW8; test: holdup assay; set-up: key: below the threshold = too weak to quantify, mostly under pKd 3.1 to 4; conditions: plain residues with an end cap or a label only (N-terminal biotin on a linker: ado-ado)

Binder | pKd
LPHGHSTTRV [NLGN4X, Q8N0W4] | below the threshold
YYKRPVQEWV [MMP24, Q9Y5R2] | below the threshold

target: PARD3_3, Q8TEW0; test: holdup assay; set-up: key: below the threshold = too weak to quantify, mostly under pKd 3.1 to 4; conditions: plain residues with an end cap or a label only (N-terminal biotin on a linker: ado-ado)
Sequence (Q8TEW0 582-685): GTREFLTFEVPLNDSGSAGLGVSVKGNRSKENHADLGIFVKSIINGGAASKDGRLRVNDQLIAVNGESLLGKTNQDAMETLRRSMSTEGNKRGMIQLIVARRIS

Binder | pKd
LPHGHSTTRV [NLGN4X, Q8N0W4] | below the threshold
YYKRPVQEWV [MMP24, Q9Y5R2] | 3.73

target: T8, PDZD7_3, Q9H5P4; test: holdup assay; set-up: key: below the threshold = too weak to quantify, mostly under pKd 3.1 to 4; conditions: plain residues with an end cap or a label only (N-terminal biotin on a linker: ado-ado)

Binder | pKd
LPHGHSTTRV [NLGN4X, Q8N0W4] | 4.28
YYKRPVQEWV [MMP24, Q9Y5R2] | below the threshold

target: SCRIB_1, Q14160; test: holdup assay; set-up: key: below the threshold = too weak to quantify, mostly under pKd 3.1 to 4; conditions: plain residues with an end cap or a label only (N-terminal biotin on a linker: ado-ado)
Sequence (Q14160 718-814): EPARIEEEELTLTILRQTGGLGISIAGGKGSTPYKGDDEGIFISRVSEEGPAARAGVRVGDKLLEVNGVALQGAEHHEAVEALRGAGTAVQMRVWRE

Binder | pKd
LPHGHSTTRV [NLGN4X, Q8N0W4] | below the threshold
YYKRPVQEWV [MMP24, Q9Y5R2] | below the threshold

target: SCRIB_3, Q14160; test: holdup assay; set-up: key: below the threshold = too weak to quantify, mostly under pKd 3.1 to 4; conditions: plain residues with an end cap or a label only (N-terminal biotin on a linker: ado-ado)
Sequence (Q14160 999-1103): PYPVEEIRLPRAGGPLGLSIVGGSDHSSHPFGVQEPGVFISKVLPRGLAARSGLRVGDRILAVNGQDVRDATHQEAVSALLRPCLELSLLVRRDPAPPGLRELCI

Binder | pKd
LPHGHSTTRV [NLGN4X, Q8N0W4] | below the threshold
YYKRPVQEWV [MMP24, Q9Y5R2] | 3.52

target: T9, SIPA1L2, Q9P2F8; test: holdup assay; set-up: key: below the threshold = too weak to quantify, mostly under pKd 3.1 to 4; conditions: plain residues with an end cap or a label only (N-terminal biotin on a linker: ado-ado)

Binder | pKd
LPHGHSTTRV [NLGN4X, Q8N0W4] | below the threshold
YYKRPVQEWV [MMP24, Q9Y5R2] | below the threshold

target: T10, SNTA1, Q13424; test: holdup assay; set-up: key: below the threshold = too weak to quantify, mostly under pKd 3.1 to 4; conditions: plain residues with an end cap or a label only (N-terminal biotin on a linker: ado-ado)

Binder | pKd
LPHGHSTTRV [NLGN4X, Q8N0W4] | 4.05
YYKRPVQEWV [MMP24, Q9Y5R2] | below the threshold

target: T11, SNTG1, Q9NSN8; test: holdup assay; set-up: key: below the threshold = too weak to quantify, mostly under pKd 3.1 to 4; conditions: plain residues with an end cap or a label only (N-terminal biotin on a linker: ado-ado)

Binder | pKd
LPHGHSTTRV [NLGN4X, Q8N0W4] | below the threshold
YYKRPVQEWV [MMP24, Q9Y5R2] | below the threshold

target: TJP1_2, Q07157; test: holdup assay; set-up: key: below the threshold = too weak to quantify, mostly under pKd 3.1 to 4; conditions: plain residues with an end cap or a label only (N-terminal biotin on a linker: ado-ado)
Sequence (Q07157 181-274): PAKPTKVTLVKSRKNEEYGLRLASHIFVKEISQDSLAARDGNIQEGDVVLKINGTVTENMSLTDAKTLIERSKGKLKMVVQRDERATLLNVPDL

Binder | pKd
LPHGHSTTRV [NLGN4X, Q8N0W4] | below the threshold
YYKRPVQEWV [MMP24, Q9Y5R2] | 4.1

target: TJP2_1, Q9UDY2; test: holdup assay; set-up: key: below the threshold = too weak to quantify, mostly under pKd 3.1 to 4; conditions: plain residues with an end cap or a label only (N-terminal biotin on a linker: ado-ado)
Sequence (Q9UDY2 24-128): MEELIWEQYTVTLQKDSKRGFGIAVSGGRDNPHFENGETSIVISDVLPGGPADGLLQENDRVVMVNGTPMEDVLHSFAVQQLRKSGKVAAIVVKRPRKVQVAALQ

Binder | pKd
LPHGHSTTRV [NLGN4X, Q8N0W4] | 4.04
YYKRPVQEWV [MMP24, Q9Y5R2] | 6.12

target: T12, TJP3_3, O95049; test: holdup assay; set-up: key: below the threshold = too weak to quantify, mostly under pKd 3.1 to 4; conditions: plain residues with an end cap or a label only (N-terminal biotin on a linker: ado-ado)

Binder | pKd
LPHGHSTTRV [NLGN4X, Q8N0W4] | below the threshold
YYKRPVQEWV [MMP24, Q9Y5R2] | 5
